One substance from US20210063414A1, “METHODS FOR PREVENTING AND/OR TREATING BONE LOSS CONDITIONS BY MODULATING IRISIN” (Dana-Farber Cancer Institute, Inc., priority 2018, published 2021) can be followed below.

The assay deals with T1, MLO-Y4 cell surface proteins (Mus musculus, UniProt Q08189).
T1 construct: endogenous in cells; host or cells: MLO-Y4
T1 sequence (Q08189 1-693): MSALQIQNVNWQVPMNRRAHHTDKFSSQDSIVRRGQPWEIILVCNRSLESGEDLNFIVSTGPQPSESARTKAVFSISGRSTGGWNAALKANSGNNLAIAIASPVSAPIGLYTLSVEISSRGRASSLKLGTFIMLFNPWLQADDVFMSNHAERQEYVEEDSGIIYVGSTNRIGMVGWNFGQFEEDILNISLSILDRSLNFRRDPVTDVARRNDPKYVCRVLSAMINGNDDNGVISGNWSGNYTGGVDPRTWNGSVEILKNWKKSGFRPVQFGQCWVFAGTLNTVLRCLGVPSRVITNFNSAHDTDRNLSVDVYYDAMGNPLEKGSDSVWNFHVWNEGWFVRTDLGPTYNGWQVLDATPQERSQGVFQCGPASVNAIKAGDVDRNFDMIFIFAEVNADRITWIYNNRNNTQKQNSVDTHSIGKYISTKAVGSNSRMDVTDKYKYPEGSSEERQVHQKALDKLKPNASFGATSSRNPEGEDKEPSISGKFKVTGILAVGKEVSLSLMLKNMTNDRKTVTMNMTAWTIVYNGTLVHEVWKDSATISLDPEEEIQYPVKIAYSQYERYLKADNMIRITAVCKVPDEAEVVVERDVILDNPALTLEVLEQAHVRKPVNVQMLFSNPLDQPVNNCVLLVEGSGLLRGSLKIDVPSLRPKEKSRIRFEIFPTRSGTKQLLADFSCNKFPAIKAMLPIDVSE
Put plainly: Crosslinking/co-immunoprecipitation/mass spectrometry (TMT quantitative proteomics) to identify irisin receptors. In kind it is binding. To be noted: co-precipitated protein Tgm3 (TGM3_MOUSE). A digest of the protocol:
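Mouse MLO-Y4 cells were switched to serum-free FreeStyle medium for 4 h, chilled, then exposed to 10 nM His-tagged irisin (or adipsin as control) for 20 min. Cells were crosslinked with 1.5 mM DTSSP (30 min, ice), and bound proteins were pulled down on Ni-NTA and eluted with 250 mM imidazole. Eluates were separated by SDS-PAGE, trypsin-digested in gel, TMT 6-plex labelled and quantified by MS3-based LC-MS/MS on an Orbitrap Fusion Lumos.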

adipsin: the TMT signal-to-noise ratio came out at 274.388.
